Laboratory results taken from PMC10374065 (PLOS Pathogens, 2023).

B1: purified recombinant T7-tagged vIRF-1 (natural protein)
chain: MDPGQRPNPFGAPGAIPKKPCLSQGSPGTSGSGAPCDEPSRSESPGEGPSGTGGSAAAGDITRQAVVAAITEWSRTRQLRISTGASEGKASIKDWIVCQVNSGKFPGVEWEDEERTRFRIPVTPLADPCFEWRRDGELGVVYIRERGNMPVDASFKGTRGRRRMLAALRRTRGLQEIGKGISQDGHHFLVFRVRKPEEEQCVECGVVAGAVHDFNNMARLLQEGFFSPGQCLPGEIVTPVPSCTTAEGQEAVIDWGRLFIRMYYNGEQVHELLTTSQSGCRISSALRRDPAVHYCAVGSPGQVWLPNVPNLACEIAKRELCDTLDACAKGILLTSSCNGIFCVCYHNGPVHFIGNTVPPDSGPLLLPQGKPTRIFNPNTFLVGLANSPLPAPSHVTCPLVKLWLGKPVAVGKLEPHAPSPRDFAARCSNFSDACVVLEIMPKPLWDAMQ
notes: source: purified recombinant protein; not shown: T7, C-terminal, kept

How the values were obtained:
Assay in all cases: pull-down
Settings in all cases: both partners purified
GST-LC3B D19E = GST-LC3B D19E (human, UniProt Q9GZQ8 1-120, D19E)
GST-LC3B L22K = GST-LC3B L22K (human, UniProt Q9GZQ8 1-120, L22K)
GST-LC3B E41K = GST-LC3B E41K (human, UniProt Q9GZQ8 1-120, E41K)
GST-GABARAPL1 = target: T1, GST-GABARAPL1 (human, UniProt Q9H0R8 1-117)
T1 construct: also called GABARAP-like 1; GL1
T1 sequence (Q9H0R8 whole entry): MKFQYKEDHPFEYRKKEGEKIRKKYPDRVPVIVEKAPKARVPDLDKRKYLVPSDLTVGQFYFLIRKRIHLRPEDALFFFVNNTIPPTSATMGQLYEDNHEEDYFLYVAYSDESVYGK

[1] = target: T2, purified recombinant T7-tagged GABARAPL1 (human, UniProt Q9H0R8 1-117)
T2 construct: also called T7-GABARAPL1

[2] = target: B1

B1
binding result (GST-LC3B D19E): binds | binding result (GST-LC3B L22K): binds | binding result (GST-LC3B E41K): binds | binding result (GST-GABARAPL1): binds

B2: GST-fused full-length (FL) vIRF-1 (natural protein)
chain: MDPGQRPNPFGAPGAIPKKPCLSQGSPGTSGSGAPCDEPSRSESPGEGPSGTGGSAAAGDITRQAVVAAITEWSRTRQLRISTGASEGKASIKDWIVCQVNSGKFPGVEWEDEERTRFRIPVTPLADPCFEWRRDGELGVVYIRERGNMPVDASFKGTRGRRRMLAALRRTRGLQEIGKGISQDGHHFLVFRVRKPEEEQCVECGVVAGAVHDFNNMARLLQEGFFSPGQCLPGEIVTPVPSCTTAEGQEAVIDWGRLFIRMYYNGEQVHELLTTSQSGCRISSALRRDPAVHYCAVGSPGQVWLPNVPNLACEIAKRELCDTLDACAKGILLTSSCNGIFCVCYHNGPVHFIGNTVPPDSGPLLLPQGKPTRIFNPNTFLVGLANSPLPAPSHVTCPLVKLWLGKPVAVGKLEPHAPSPRDFAARCSNFSDACVVLEIMPKPLWDAMQ
binding result [1]: binds

B3: GST-GABARAP (natural protein, human, UniProt O95166 1-117, looked up)
chain: MKFVYKEEHPFEKRRSEGEKIRKKYPDRVPVIVEKAPKARIGDLDKKKYLVPSDLTVGQFYFLIRKRIHLRAEDALFFFVNNVIPPTSATMGQLYQEHHEEDFFLYIAYSDESVYGL
notes: also called γ-amino-butyric acid receptor-associated protein
binding result [2]: binds
